Reference: article PMC6715182, “Helicobacter pylori senses bleach (HOCl) as a chemoattractant using a cytosolic chemoreceptor” (PLoS Biology, 2019)

Tests used:
CheW (Escherichia coli) = CheW (Escherichia coli) (UniProt P0A964); details: cited from earlier work
[1] = biological target: Helicobacter pylori transducer-like protein D lacking the N-terminal His tag, TlpD(-His) (Helicobacter pylori (SS1 strain)) (UniProt B5Z6X0); assay: AUC; interference experiments, 3 x 28 uM TlpD(-His) in PBS (pH 7), 1 mM TCEP, 20 C, 55,000 rpm; KD from the integrated monomer and dimer peaks; dimer to monomers
[2] = test system: Nc1ncnc2c1ncn2[C@@H]1O[C@H](COP(=O)(O)OP(=O)(O)OP(=O)(O)O)[C@@H](O)[C@H]1O; assay: purified protein; details: Mg2+ ([…] MgCl2)

Chain of CheA (P07363 whole entry): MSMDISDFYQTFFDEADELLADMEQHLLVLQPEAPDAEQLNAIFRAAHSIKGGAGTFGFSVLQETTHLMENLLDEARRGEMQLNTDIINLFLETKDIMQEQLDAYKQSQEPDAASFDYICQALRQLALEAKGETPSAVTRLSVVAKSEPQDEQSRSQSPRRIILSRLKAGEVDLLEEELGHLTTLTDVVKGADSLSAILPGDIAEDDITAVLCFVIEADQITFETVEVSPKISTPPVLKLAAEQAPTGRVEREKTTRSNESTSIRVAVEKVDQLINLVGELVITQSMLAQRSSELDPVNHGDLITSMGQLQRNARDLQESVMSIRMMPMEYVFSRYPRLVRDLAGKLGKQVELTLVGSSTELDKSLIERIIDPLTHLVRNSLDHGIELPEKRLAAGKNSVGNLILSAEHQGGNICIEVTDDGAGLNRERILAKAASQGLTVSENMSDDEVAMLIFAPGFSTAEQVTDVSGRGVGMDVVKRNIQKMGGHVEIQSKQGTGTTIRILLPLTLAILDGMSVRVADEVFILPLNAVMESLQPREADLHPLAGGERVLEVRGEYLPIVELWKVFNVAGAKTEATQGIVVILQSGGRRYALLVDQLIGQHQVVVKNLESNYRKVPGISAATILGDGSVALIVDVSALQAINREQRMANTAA

CheA (from UniProt P07363)
Kd (CheW (Escherichia coli)): 17 µM

Helicobacter pylori transducer-like protein D lacking the N-terminal His tag, TlpD(-His) (from UniProt B5Z6X0 1-433) (receptor)
Kd [1]: 0.0657 µM

CheA (Helicobacter pylori G27)
Km [2]: 136 µM
